Reference: article PMC5880400, “FIN219/JAR1 and cryptochrome1 antagonize each other to modulate photomorphogenesis under blue light in Arabidopsis” (PLoS Genetics, 2018)

Molecular target: T1, CBP-CRY1 (cryptochrome1 full-length, recombinant) (Arabidopsis thaliana, UniProt Q43125 1-681)
T1 construct: cryptochrome1 (CRY1), Arabidopsis thaliana, full-length; also called CRY1/pCal-n; CRY1 full-length; source: E. coli BL21 (DE3) codon plus, purified (electroelution), acetone-precipitated and resuspended in PBS
Test: pull-down; 5 ug purified recombinant protein mixed in 500 ul interaction buffer (50 mM Tris-HCl pH 7.5, 10 mM MgCl2, 100 mM NaCl, 1 mM PMSF, 0.04% NP-40), 4°C 1 h; GST fusions held on GSH sepharose; blot probed with antibodies against the CBP-tag
Settings: both partners purified

T1 sequence (Q43125 whole entry): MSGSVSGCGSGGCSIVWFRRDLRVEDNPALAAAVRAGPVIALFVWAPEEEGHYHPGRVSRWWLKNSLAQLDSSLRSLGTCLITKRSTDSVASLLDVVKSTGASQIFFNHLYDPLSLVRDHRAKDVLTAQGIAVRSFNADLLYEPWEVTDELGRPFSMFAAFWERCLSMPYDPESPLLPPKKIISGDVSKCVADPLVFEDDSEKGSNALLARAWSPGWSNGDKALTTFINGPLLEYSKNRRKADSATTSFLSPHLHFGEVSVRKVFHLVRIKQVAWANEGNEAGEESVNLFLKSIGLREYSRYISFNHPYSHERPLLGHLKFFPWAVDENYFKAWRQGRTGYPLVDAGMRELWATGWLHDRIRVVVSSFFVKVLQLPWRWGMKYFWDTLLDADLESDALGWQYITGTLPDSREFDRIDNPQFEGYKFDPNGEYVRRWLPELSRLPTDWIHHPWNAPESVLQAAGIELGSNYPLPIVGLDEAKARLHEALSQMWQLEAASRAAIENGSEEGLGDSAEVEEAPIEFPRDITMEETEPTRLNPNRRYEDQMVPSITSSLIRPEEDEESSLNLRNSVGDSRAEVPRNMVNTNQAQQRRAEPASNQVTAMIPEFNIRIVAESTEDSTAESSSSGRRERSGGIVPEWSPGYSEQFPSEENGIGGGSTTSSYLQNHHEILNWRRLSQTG

binding result: binds
B1: GST-FIN219 (FIN219/JAR1 full-length, recombinant) (natural protein, Arabidopsis thaliana, UniProt Q9SKE2 1-575, looked up)
chain: MLEKVETFDMNRVIDEFDEMTRNAHQVQKQTLKEILLKNQSAIYLQNCGLNGNATDPEEAFKSMVPLVTDVELEPYIKRMVDGDTSPILTGHPVPAISLSSGTSQGRPKFIPFTDELMENTLQLFRTAFAFRNRDFPIDDNGKALQFIFSSKQYISTGGVPVGTATTNVYRNPNFKAGMKSITSPSCSPDEVIFSPDVHQALYCHLLSGILFRDQVQYVFAVFAHGLVHAFRTFEQVWEEIVTDIKDGVLSNRITVPSVRTAMSKLLTPNPELAETIRTKCMSLSNWYGLIPALFPNAKYVYGIMTGSMEPYVPKLRHYAGDLPLVSHDYGSSEGWIAANVTPRLSPEEATFAVIPNLGYFEFLPVSETGEGEEKPVGLTQVKIGEEYEVVITNYAGLYRYRLGDVVKVIGFYNNTPQLKFICRRNLILSINIDKNTERDLQLSVESAAKRLSEEKIEVIDFSSYIDVSTDPGHYAIFWEISGETNEDVLQDCCNCLDRAFIDAGYVSSRKCKTIGALELRVVAKGTFRKIQEHFLGLGSSAGQFKMPRCVKPSNAKVLQILCENVVSSYFSTAF
notes: FIN219/JAR1, Arabidopsis thaliana, full-length; also called GST-FIN219 full-length; FIN219FL/pGEX-4T-1; source: E. coli BL21 (DE3) codon plus, purified (GSH sepharose), acetone-precipitated and resuspended in PBS
